58 variants from the FLAb antibody collection (doi:10.7554/elife.23156) can be followed below.

Usually Kd stands for the constant that tells how readily two partners part at equilibrium.

B1: scFv; the commonest letter at each place (parent)
chain 1: EVKLDETGGGLVQPGRPMKLSCVASGFTFSDYWMNWVRQSPEKGLEWVAQIRNKPYNYETYYSDSVKGRFTISRDDSKSSVYLQMNNLRVEDMGIYYCTGSYYGMDYWGQGTSVTVS
chain 2: DVVMTQTPLSLPVSLGDQASISCRSSQSLVHSNGNTYLRWYLQKPGQSPKVLIYKVSNRFSGVPDRFSGSGSGTDFTLKISRVEAEDLGVYFCSQSTHVPWTFGGGTKLEIK

Where only a bound is given, the exact number is not on record here.

In the data set “fluorescein” the parent is B1. The data set can be described thus: Kd (Tite-Seq). The following applies: with fluorescein; format: scFv 4-4-20, heavy + light.
Variants of B1 are the subject of data set [1]. The data set can be described thus: yeast surface expression (ratio to wild type); higher = more expressed. The following applies: format: scFv 4-4-20, heavy + light.

Consider chain 1 Y102C G104D, for which the dissociation constant Kd with fluorescein is at least 10 µM. Moreover, the yeast surface expression in data set [1] was found to be 0.919. The matching figures for chain 1 T28C M34L W36M: at least 10 µM and 0.657. The matching figures for chain 1 F29L S30C N35A: at least 10 µM and 0.89. Regarding chain 1 Y32I M34A, the Kd with fluorescein was at least 10 µM. In addition, the yeast surface expression in data set [1] is 0.821. The matching figures for chain 1 W33N W36R: at least 10 µM and 0.764. The matching figures for chain 1 Y32V V37K: 7.72 µM and 0.425. The matching figures for chain 1 Y32A M34S: at least 10 µM and 0.769. chain 1 T28A W33S: the dissociation constant (Kd) with fluorescein is at least 10 µM. Moreover, the yeast surface expression in data set [1] was found to be 0.826. In the case of chain 1 S30T V37P, the Kd in the data set with fluorescein came to 0.0592 µM. As for chain 1 Y103M M105N, in the data set with fluorescein, the dissociation constant (Kd) was found to be 1.14 µM. The yeast surface expression in data set [1] turned out to be 1.52. The matching figures for chain 1 T28L W36A: at least 10 µM and 0.508. The corresponding values for chain 1 Y103M W108A are 0.00746 µM and 0.484. In the case of chain 1 Y102H G104N M105S, the dissociation constant (Kd) in the data set with fluorescein is at least 10 µM. The yeast surface expression in data set [1] came out at 1.54.

As for chain 1 S101F M105L, the Kd in the data set with fluorescein is at least 10 µM. In addition, in data set [1], the yeast surface expression was 0.483. The corresponding values for chain 1 G100I G109A are at least 10 µM and 0.429. The corresponding values for chain 1 D31N M34A are 0.00194 µM and 0.614. The corresponding values for chain 1 Y103P Y107D are at least 10 µM and 0.617. With chain 1 Y103H M105F Y107L, the Kd with fluorescein is at least 10 µM. The yeast surface expression in data set [1] was found to be 0.92.

Take chain 1 T28H W36L: in the data set with fluorescein, the Kd is at least 10 µM. For the same variant, in data set [1], the yeast surface expression was determined as 0.454. The matching figures for chain 1 F29I N35P: at least 10 µM and 2.62. The matching figures for chain 1 Y32C M34F: at least 10 µM and 0.872. The matching figures for chain 1 S101D D106N: at least 10 µM and 0.813. With chain 1 T28V F29D, the Kd with fluorescein is at least 10 µM. In data set [1], the yeast surface expression was 0.952.

Consider chain 1 F29P Y32I M34L, for which, in the data set with fluorescein, the dissociation constant Kd is at least 10 µM. Moreover, the yeast surface expression in data set [1] came to 0.858.

Consider chain 1 Y102F G104Y W108D, for which the dissociation constant (Kd) with fluorescein is at least 10 µM. Further, the yeast surface expression in data set [1] turned out to be 0.204.

Consider chain 1 Y32G, for which, in the data set with fluorescein, the dissociation constant Kd amounted to 1.63 µM. Moreover, the yeast surface expression in data set [1] worked out at 0.961. The matching figures for chain 1 Y32K: 1.67 µM and 0.804. Consider chain 1 G100N Y107V, for which the dissociation constant (Kd) with fluorescein is at least 10 µM. Moreover, in data set [1], the yeast surface expression is 0.691. The corresponding values for chain 1 F29Y D31E W33G are at least 10 µM and 1.63. chain 1 D31F N35I: the equilibrium dissociation constant (Kd) with fluorescein is at least 10 µM. For the same variant, the yeast surface expression in data set [1] came to 1.11. The matching figures for chain 1 S30V M34S: at least 10 µM and 0.569. The matching figures for chain 1 S101K Y103T: at least 10 µM and 0.456. The corresponding values for chain 1 S101A Y107E W108G are at least 10 µM and 0.353. As to chain 1 Y102K Y103L G104F, the equilibrium dissociation constant (Kd) in the data set with fluorescein is at least 10 µM. For the same variant, the yeast surface expression in data set [1] came out at 0.545. The matching figures for chain 1 M34C N35L V37F: 0.0657 µM and 0.501. The matching figures for chain 1 T28D D31E V37E: at least 10 µM and 0.567. The matching figures for chain 1 M105R W108L: 0.000333 µM and 0.585.

For chain 1 G100F G109V, the Kd in the data set with fluorescein was at least 10 µM. Moreover, the yeast surface expression in data set [1] is 0.253.

In the case of chain 1 Y103W G109S, in the data set with fluorescein, the dissociation constant (Kd) was at least 10 µM. For the same variant, in data set [1], the yeast surface expression was determined as 0.653.

Take chain 1 N35K W36F: the dissociation constant Kd in the data set with fluorescein was at least 10 µM. The yeast surface expression in data set [1] was determined as 0.453. The matching figures for chain 1 G104F G109W: at least 10 µM and 0.0981. The matching figures for chain 1 Y102S G109S: 0.00293 µM and 1.12. The corresponding values for chain 1 D31G Y32D are at least 10 µM and 0.803.

Take chain 1 M34P N35L: the Kd in the data set with fluorescein is at least 10 µM. Besides, the yeast surface expression in data set [1] is 0.779.

For the variant chain 1 M105S G109T, in the data set with fluorescein, the equilibrium dissociation constant (Kd) is at least 10 µM. Besides, in data set [1], the yeast surface expression amounted to 0.527. The matching figures for chain 1 Y103Q G104N: at least 10 µM and 0.905. Regarding chain 1 Y102P G104S M105H, the Kd with fluorescein was at least 10 µM. The yeast surface expression in data set [1] is 0.325. The matching figures for chain 1 D31P W33S: at least 10 µM and 0.352.

In the case of chain 1 Y107P G109N, the Kd with fluorescein is at least 10 µM. Moreover, the yeast surface expression in data set [1] came to 0.355. The matching figures for chain 1 N35P W36V: 7.33 µM and 1.08. The corresponding values for chain 1 W36L V37Q are at least 10 µM and 0.537. The matching figures for chain 1 G100L D106L: at least 10 µM and 0.395.

As to chain 1 G100I Y103C M105Y, the Kd in the data set with fluorescein is at least 10 µM. The yeast surface expression in data set [1] worked out at 0.694. The matching figures for chain 1 Y107G: at least 10 µM and 0.544. The matching figures for chain 1 F29C W33G: at least 10 µM and 0.544.

For chain 1 S30E M34T W36T, in the data set with fluorescein, the Kd is at least 10 µM. Also, the yeast surface expression in data set [1] worked out at 0.353.

chain 1 D31Q W33T: the Kd with fluorescein was at least 10 µM. Besides, in data set [1], the yeast surface expression was determined as 0.793. The matching figures for chain 1 S30V D31M: 0.0372 µM and 0.223.
